Values joined by “and” are separate entries in the source; they are usually repeats but may differ in a detail not shown here. Equal entries are not always repeated.
Legend:
[1] = biological target: T1, TconTS2-LD (Trypanosoma congolense, UniProt W0YLD6); assay: STD NMR; format: binding; settings: 5.5 uM protein, 3.45 mM ligand; deuterated phosphate pD 7.4; site distinct from mannotriose site
T1 construct: gene TS2; C-terminal lectin-like domain without the CD-LD linker alpha-helix; N-terminal His-MBP and C-terminal SNAP-Strep tags kept; expressed in E. coli Rosetta pLacI

[2] = biological target: recombinant TconTS1 (Trypanosoma congolense trans-sialidase 1; CD, α-helix and LD) (Trypanosoma congolense); assay: SEC; Superdex 200 10/300 GL, 10 mM phosphate buffer pH 7.4, 4°C, 0.5 mL/min, 100 to 300 μg TconTS in 500 μL, detection at 280 nm; column calibrated with gel filtration markers 29,000-700,000 Da; monomer, dimer and oligomer peaks
[3] = biological target: TconTS1 enzymatically deglycosylated with EndoHf (native conditions) (Trypanosoma congolense); assay: as above
[4] = biological target: recombinant TconTS2 (Trypanosoma congolense trans-sialidase 2; CD, α-helix and LD) (Trypanosoma congolense); assay: as above

Q: `OC[C@H]1O[C@@H](O[C@H]2[C@H](O)[C@@H](O)[C@@H](O)O[C@@H]2CO)[C@H](O)[C@@H](O)[C@H]1O` [lactose, β-D-galactosyl-(1–4)-α-D-glucose] was tested. Which “STD NMR” value [1] did it give?
A: Its value is “Binding of lactose to TconTS2-LD was also clearly observed (Fig 3B)”.

Q: Which results are given for “recombinant TconTS1 (Trypanosoma congolense trans-sialidase 1; CD, α-helix and LD) (enzyme)”?
A: ratio of monomer to dimer (monomer:dimer) [2]: 1; stoichiometry N [2]: 2 and 4

Q: For “TconTS1 enzymatically deglycosylated with EndoHf (native conditions) (enzyme)”, which stoichiometry N [3] is on record?
A: The stoichiometry N was 2.

Q: “recombinant TconTS2 (Trypanosoma congolense trans-sialidase 2; CD, α-helix and LD) (enzyme)” was tested. Which stoichiometry N [4] did it give?
A: Its stoichiometry N is 2.

Reference: PMC4608562, “Carbohydrate Recognition Specificity of Trans-sialidase Lectin Domain from Trypanosoma congolense” (PLoS Neglected Tropical Diseases, 2015)
